Columns and labels:
[1] = Steady-state kinetic analysis of full-conversion cumulative luminescence curves; assay type: biochemical; conditions: for kcat / Kd: 100 mM phosphate buffer pH 7.5, 37° C.; for Kd: read-out: Kp (equilibrium dissociation constant for enzyme-product complex); for Glow-type effectivity: kcat/Km divided by Km/Kp; for Decrease of ratio Km/Kp: compared to the other tested variants
Method: Each luminescence trace was measured in 3 repetitions. The concentration of coelenterazine in the final reaction mixture ranged from 0.2 to 7.9 μM while the concentration of luciferase enzymes ranged from 17 to 640 nM.
An updated protocol applying new standards for collecting and fitting steady-state kinetic data was used. Unlike the classical initial velocity analysis, which requires a sophisticated luminometer calibration and quantum yield evaluation, luminescence data were recorded when letting the reaction proceed to completion beyond the initial linear phase. The recorded luminescence traces (rate vs. time) were transformed to reaction progress curves corresponding to cumulative luminescence in time. The transformed kinetic data (product vs. time) were fitted globally with the KinTek Explorer (KinTek Corporation, USA). The software allows for the input of a given kinetic model via a simple text description, and the program then derives the differential equations needed for numerical integration automatically.
Numerical integration of rate equations searching a set of kinetic parameters that produce a minimum χ^2 value was performed using the Bulirsch-Stoer algorithm with adaptive step size, and nonlinear regression to fit data was based on the Levenberg-Marquardt method. To account for fluctuations in experimental data, enzyme or substrate concentrations were slightly adjusted (5%) to derive best fits. Residuals were normalized by sigma values for each data point. The standard error was calculated from the covariance matrix during nonlinear regression. In addition to standard error values, more rigorous analysis of the variation of the kinetic parameters was accomplished by confidence contour analysis by using FitSpace Explorer (KinTek Corporation, USA). In these analyses, the lower and upper limits for each parameter were derived from the confidence contour obtained from setting χ^2 threshold at 0.9. The scaling factor, relating luminescence signal to product concentration, was applied as one of the fitted parameters, well constrained by end-point levels of kinetic traces recorded at particular substrate concentrations. Depletion of the available substrate after the reaction was ensured by repeated injection of the fresh enzyme.
The steady-state model, described by Equation (4), was used to obtain the values of turnover number kcat, Michaelis constant Km, and equilibrium dissociation constant for enzyme-product complex Kp. A conservative estimate for diffusion-limited substrate and product binding k1 and k3 (100 μM^−1·s^−1) was used as a fixed value to mimic the rapid equilibrium assumption. An alternative form of the model, described by Equation (5), was used to obtain estimates of kcat/Km directly by setting k−1=0.

[2] = Thermal unfolding by NanoDSF (tryptophan fluorescence); assay type: physicochemical; conditions: 100 mM potassium phosphate buffer pH 7.5, 1° C./min
Method: Thermal unfolding was studied using NanoDSF Prometheus (NanoTemper, Germany) by monitoring tryptophan fluorescence over the temperature range of 20 to 90° C., at a heating rate of 1° C./min. The melting temperatures (Tonset and Tm) were evaluated directly by ThermControl v2.0.2.

[3] = Stopped-flow pre-steady-state kinetics of substrate binding (tryptophan fluorescence quenching); conditions: 15° C.
Method: The measurement was performed at 15° C. in 100 mM potassium phosphate buffer pH 7.5. Rapid mixing of the components was achieved using the Stopped-Flow SFM 3000 combined with the MOS-500 spectrometer (BioLogic, France). The reaction was initiated by mixing 75 μL of an enzyme with 75 μL of coelenterazine and then monitored by the change of native tryptophan fluorescence (295 nm excitation, 340±13 nm emission). The fluorescence changes were caused by the quenching effect of the coelenterazine substrate upon its binding by an enzyme. The experiment was designed in two different modes, varying either the concentration of the coelenterazine substrate or the concentration of an enzyme. Each kinetic trace was measured in seven consecutive replicates and averaged. The concentration of coelenterazine in the final reaction mixture ranged from 0.9 to 90 μM while the concentration of luciferase enzymes ranged from 0.4 to 94 μM.
The collected double-exponential kinetic traces were fitted globally with the KinTek Explorer (KinTek Corporation, USA). The software allows for the input of a given kinetic model via a simple text description, and the program then derives the differential equations needed for numerical integration automatically. Numerical integration of rate equations searching a set of kinetic parameters that produce a minimum χ^2 value was performed using the Bulirsch-Stoer algorithm with adaptive step size, and nonlinear regression to fit data was based on the Levenberg-Marquardt method. Residuals were normalized by sigma values for each data point. The standard error was calculated from the covariance matrix during nonlinear regression. In addition to standard error values, more rigorous analysis of the variation of the kinetic parameters was accomplished by confidence contour analysis by using FitSpace Explorer (KinTek Corporation, USA). In these analyses, the lower and upper limits for each parameter were derived from the confidence contour obtained from setting the χ^2 threshold at 0.95.
The time-course of the fluorescence quenching upon substrate binding was described with Equation (7) according to the induced-fit binding mechanism and the mechanism was fit directly to the collected kinetic data to obtain the values of elementary rate constants describing the substrate binding process. The quality of the best fits was compared in terms of χ^2 values, “chi-by-eye” assessment, and confidence contour analysis assessing constraint and independency of the determined parameters which confirmed that the obtained values are well-defined by the collected kinetic data.

[4] = Anaerobic equilibrium binding of coelenterazine substrate (fluorescence)
Method: The experiments were performed under strictly anaerobic conditions to prevent enzymatic oxidation of interacting ligands. To do so, all the equipment and material, including water, buffer, pipettes, tips, syringes, microplates, and sealing, were made anaerobic by incubating them overnight in the anaerobic glovebox Belle MR2 (Belle Technology, UK). The box was filled with ultra-high purity (UHP) nitrogen atmosphere containing the residual oxygen concentration of 2.3 ppm, as determined by the oxygen meter O2M-3 (Belle Technology, UK). Liquids were aliquoted to the volume of maximally 50 mL and were stirred overnight in the box to release any dissolved oxygen. Two hours prior to the experiment, a closed bottle with an evacuated lyophilized enzyme (oxygen depleted) was put into the glovebox, dissolved with anaerobic water, and incubated to remove any remaining oxygen possibly dissolved in the solution. Similarly, the stock solution of coelenterazine or coelenteramide in ethanol, which was long-term stored in a freezer under the nitrogen atmosphere without oxygen, was put into the glovebox in a closed bottle. A small aliquot of coelenterazine/coelenteramide was transferred into a new empty bottle and kept open for about 20 minutes to remove the remaining dissolved oxygen. After the incubation, a few microliters of an enzyme were mixed with the same amount of coelenterazine, and the mixture was visually inspected for any possible bioluminescence. If no light was observed and the mixture remained yellow even after a minute, all the reagents were ready for anaerobic measurements.
(§1) In the anaerobic glovebox, 200 μL of a differently concentrated enzyme was put into a separate well in a microplate and into each of these wells, 5 μL of coelenterazine or coelenteramide stock solution was added. As a blank, 200 μL of the enzyme was mixed with 5 μL of ethanol for each enzyme concentration. […] The extent of coelenterazine binding at each concentration was determined by measuring fluorescence spectra ranging from 480 to 580 nm upon excitation at 420 nm using the microplate spectrophotometer Varioskan LUX (Thermo Scientific, USA). Binding of coelenteramide was monitored by measuring fluorescence spectra ranging from 350 to 700 nm upon excitation at 330 nm. […]
The obtained fluorescence spectra were visually inspected for characteristic peaks, and the value of the maximal fluorescence intensity Fluomax at these peaks was plotted against the enzyme concentration. The final value of the dissociation constant Kd was determined by fitting the dependence with the hyperbolic Equation (8) using the software Origin 6.1 (OriginLab, USA).

[5] = Anaerobic equilibrium binding of coelenteramide product (fluorescence); conditions: pH 7.5, 30° C., read-out: Dissociation constant Kd, Coelenteramide product
Method: The experiments were performed under strictly anaerobic conditions to prevent enzymatic oxidation of interacting ligands. To do so, all the equipment and material, including water, buffer, pipettes, tips, syringes, microplates, and sealing, were made anaerobic by incubating them overnight in the anaerobic glovebox Belle MR2 (Belle Technology, UK). The box was filled with ultra-high purity (UHP) nitrogen atmosphere containing the residual oxygen concentration of 2.3 ppm, as determined by the oxygen meter O2M-3 (Belle Technology, UK). Liquids were aliquoted to the volume of maximally 50 mL and were stirred overnight in the box to release any dissolved oxygen. […] If no light was observed and the mixture remained yellow even after a minute, all the reagents were ready for anaerobic measurements.
as §1, with “added.” for “added. As a blank, 200 μL of the enzyme was mixed with 5 μL of ethanol for each enzyme concentration.”

Molecule	Kd [1] [nM]	k+2 ([3]; pH 7.5) [s⁻¹]	k−1 ([3]; pH 7.5) [s⁻¹]	k−2 ([3]; pH 7.5) [s⁻¹]	k+1 ([3]; pH 7.5, induced-fit binding mechanism) [M⁻¹ s⁻¹]	Kd ([4]; anaerobic, pH 7.5, 30° C., read-out: Dissociation constant Kd, Coelenterazine substrate) [nM]	Kd ratio substrate/product ([4]; ratio)	Kd [5] [nM]	kcat [1] [s⁻¹]	Glow-type effectivity [1]	Tm [2] [°C]	Tonset [2] [°C]	Decrease of ratio Km/Kp [1] [fold]	Improvement of glow-type effectivity ([1]; compared to AncFT) [fold]	Improvement of glow-type effectivity ([1]; compared to RLuc8)
AncFT-L14: AncFT with additionally transplanted L14 loop (LVKGGKP at positions 223 to 229) from RLuc (protein, Amino acid sequence of AncFT-L14, AncFT with additionally transplanted L14 loop (LVKGGKP at positions 223 to 229) from RLuc) MVSASQRTTSTATGDEWWAKCKQVDVLDSEMSYYDSDPGKHKNTVIFLHGNPTSSYLWRNVIPHVEPLARCLAPDLIGMGKSGKLPNHSYRFVDHYRYLSAWFDSVNLPEKVTIVCHDWGSGLGFHWCNEHRDRVKGIVHMESVVDVIESWDEWPDIEEDIALIKSEAGEEMVLKKNFFIERLLPSSIMRKLSEEEMDAYREPFVEPGESRRPTLTWPREIPLVKGGKPDVIEIVKSYNKWLSTSKDIPKLFINADPGFFSNAIKKVTKNWPNQKTVTVKGLHFLQEDSPEEIGEAIADFLNELTK	550 ± 30								0.168 ± 0.001	48 ± 6	47.0 ± 0.1	39.8 ± 0.2	10	4	more than 20 fold
AncFT-D160A: AncFT carrying the single-point D160A mutation; blue-shifted emission (protein, Amino acid sequence of AncFT-D160A, AncFT carrying the single-point D160A mutation; blue-shifted emission) MVSASQRTTSTATGDEWWAKCKQVDVLDSEMSYYDSDPGKHKNTVIFLHGNPTSSYLWRNVIPHVEPLARCLAPDLIGMGKSGKLPNHSYRFVDHYRYLSAWFDSVNLPEKVTIVCHDWGSGLGFHWCNEHRDRVKGIVHMESVVDVIESWDEWPDIEEAIALIKSEAGEEMVLKKNFFIERLLPSSIMRKLSEEEMDAYREPFVEPGESRRPTLTWPREIPIKGDGPEDVIEIVKSYNKWLSTSKDIPKLFINADPGFFSNAIKKVTKNWPNQKTVTVKGLHFLQEDSPEEIGEAIADFLNELTK	230 ± 10								0.339 ± 0.001	3.6 ± 0.3	57.9 ± 0.1	51.5 ± 0.1	10		

Further lines, with some results ahead:

Kd [1] [nM]	k+2 ([3]; pH 7.5) [s⁻¹]	k−1 ([3]; pH 7.5) [s⁻¹]	k−2 ([3]; pH 7.5) [s⁻¹]	k+1 ([3]; pH 7.5, induced-fit binding mechanism) [M⁻¹ s⁻¹]	Kd ([4]; anaerobic, pH 7.5, 30° C., read-out: Dissociation constant Kd, Coelenterazine substrate) [nM]	Kd ratio substrate/product ([4]; ratio)	Kd [5] [nM]	Molecule	kcat [1] [s⁻¹]	Glow-type effectivity [1]	Tm [2] [°C]	Tonset [2] [°C]	Decrease of ratio Km/Kp [1] [fold]	Improvement of glow-type effectivity ([1]; compared to AncFT) [fold]	Improvement of glow-type effectivity ([1]; compared to RLuc8)
920 ± 10								Super RLuc8: Recently reported RLuc8 enzyme variant (Rahnama et el., 2017) (protein, Super RLuc8) MTSKVYDPEQRKRMITGPQWWARCKQMNVLDSFINYYDSEKHAENAVIFLHGNATSSYLWRHVVPHIEPVARCIIPDLIGMGKSGKSGNGSYRLLDHYKYLTAWFELLNLPKKIIFVGHDWGSALAFHYAYEHQDRIKAIVHMESVVDVIESWKNWPDIEEELALIKSEEGEKMVLENNFFVETVLPSVIMRKLEPEEFAAYLEPFKEKGEVRRPTLSWPREIPLVKGGKPDVVQIVRNYNAYLRASDDLPKLFIESDPGWFSNAIIEGAKKFPNTEFVKVKGLHFLQEDAPDEMGKYIKSFVERVLKNEQ	6.49 ± 0.05	0.17 ± 0.02	50.1 ± 0.2	39.1 ± 0.3			
500 ± 100	31.9 ± 1.1	367 ± 5	27.5 ± 0.4	5.21e+06 ± 70000	12000 ± 5000	0.7 ± 0.3	16000 ± 2000	AncFT: Ancestral protein AncHLD-RLuc with the L9-α4 region transplanted from RLuc; glow-type coelenterazine-utilizing luciferase (protein, Amino acid sequence of AncFT) MVSASQRTTSTATGDEWWAKCKQVDVLDSEMSYYDSDPGKHKNTVIFLHGNPTSSYLWRNVIPHVEPLARCLAPDLIGMGKSGKLPNHSYRFVDHYRYLSAWFDSVNLPEKVTIVCHDWGSGLGFHWCNEHRDRVKGIVHMESVVDVIESWDEWPDIEEDIALIKSEAGEEMVLKKNFFIERLLPSSIMRKLSEEEMDAYREPFVEPGESRRPTLTWPREIPIKGDGPEDVIEIVKSYNKWLSTSKDIPKLFINADPGFFSNAIKKVTKNWPNQKTVTVKGLHFLQEDSPEEIGEAIADFLNELTK	0.111 ± 0.001	12 ± 3	56.6 ± 0.1	50.5 ± 0.1	10		
